± gives the standard error. Fewer inactive variants are shown than the library holds.
B1: glmS ribozyme (parent)
chain: AUAAAAGCGCCAGAACUACAGAAAUGUAGUUGACGAGGAGGAGGUUUAUCGAAUUUUCGGCGGAUGCCUCCAAA

Assays:
Conditions in all cases: with glucosamine-6-phosphate
glucosamine-6-phosphate [1] = variants of: B1; experiment: self-cleavage kobs at 40 uM GlcN6P; higher = faster cleavage; RNA array
How it was run: (§1)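 Tiles bearing barcoded ribozyme variants, transcribed in situ by E. coli RNA polymerase on sequenced MiSeq chips, were imaged over ~14 h at 37 °C using a hybridised Cy3 probe. Glucosamine-6-phosphate was supplied at 40 μM to 10 mM in HEPES/KCl/Mg(OAc)2 buffer. kobs came from one- or two-exponential decay fits to normalised per-tile medians, and weighted Michaelis–Menten fits then provided kcat and KM.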

glucosamine-6-phosphate [2] = variants of: B1; experiment: self-cleavage kobs at 160 uM GlcN6P; higher = faster cleavage; RNA array
How it was run: as §1

glucosamine-6-phosphate [3] = variants of: B1; experiment: self-cleavage kobs at 640 uM GlcN6P; higher = faster cleavage; RNA array
How it was run: as §1

glucosamine-6-phosphate [4] = variants of: B1; experiment: self-cleavage kobs at 2500 uM GlcN6P; higher = faster cleavage; RNA array
How it was run: as §1

glucosamine-6-phosphate [5] = variants of: B1; experiment: self-cleavage kobs at 10000 uM GlcN6P; higher = faster cleavage; RNA array
How it was run: as §1

Variant	self-cleavage kobs at 40 uM GlcN6P (glucosamine-6-phosphate [1]) [s⁻¹]	self-cleavage kobs at 160 uM GlcN6P (glucosamine-6-phosphate [2]) [s⁻¹]	self-cleavage kobs at 640 uM GlcN6P (glucosamine-6-phosphate [3]) [s⁻¹]	self-cleavage kobs at 2500 uM GlcN6P (glucosamine-6-phosphate [4]) [s⁻¹]	self-cleavage kobs at 10000 uM GlcN6P (glucosamine-6-phosphate [5]) [s⁻¹]
G38C G41A	< 1e-05	< 1e-05	< 1e-05	< 1e-05	< 1e-05
G35U U54A	< 1e-05	< 1e-05	< 1e-05	< 1e-05	–
A36C A48G	< 1e-05	–	–	–	< 1e-05
G37A A52U G59A G60A	< 1e-05	–	–	–	–
G40A G43U	< 1e-05	< 1e-05	< 1e-05	–	< 1e-05
G40A G43A	< 1e-05	–	< 1e-05	< 1e-05	< 1e-05
A39C G60C C68U	< 1e-05	< 1e-05	< 1e-05	–	–
G35U C67G C71A	< 1e-05	–	–	–	–
G35A C61G U65G C67A U69G	6.66e-05 ± 2.3e-05	–	–	–	–
G35A U56C C58U	< 1e-05	–	–	–	< 1e-05
A39C C61A	< 1e-05	< 1e-05	< 1e-05	< 1e-05	< 1e-05
G38A C58U G59U	< 1e-05	–	–	–	< 1e-05
G38U C50A C67G	8.67e-05 ± 3.1e-05	–	–	–	0.000115 ± 3.2e-05
G35U G37A	< 1e-05	–	< 1e-05	< 1e-05	–
G37A U54A	7.84e-05 ± 1.8e-05	–	–	–	0.00478 ± 0.00082
G35A U57G	< 1e-05	–	–	–	–
G35A A53C	< 1e-05	< 1e-05	< 1e-05	–	< 1e-05
G37C C68A	< 1e-05	–	–	–	< 1e-05
A36C G43U	< 1e-05	–	< 1e-05	< 1e-05	< 1e-05
G35A C50G C71U	0.000138 ± 3.5e-05	–	–	8.9e-05 ± 3.1e-05	0.000191 ± 3.6e-05
G38A G41A G63C	< 1e-05	–	–	–	–
G35U U54C U55A G59C	< 1e-05	–	–	–	< 1e-05
G35A U46A	< 1e-05	< 1e-05	< 1e-05	< 1e-05	< 1e-05
C34U U65A	< 1e-05	< 1e-05	< 1e-05	–	< 1e-05

Variant	self-cleavage kobs at 40 uM GlcN6P (glucosamine-6-phosphate [1]) [s⁻¹]	self-cleavage kobs at 160 uM GlcN6P (glucosamine-6-phosphate [2]) [s⁻¹]	self-cleavage kobs at 640 uM GlcN6P (glucosamine-6-phosphate [3]) [s⁻¹]	self-cleavage kobs at 2500 uM GlcN6P (glucosamine-6-phosphate [4]) [s⁻¹]	self-cleavage kobs at 10000 uM GlcN6P (glucosamine-6-phosphate [5]) [s⁻¹]
C34U U65C	< 1e-05	< 1e-05	< 1e-05	< 1e-05	< 1e-05
G37C G62C	< 1e-05	–	< 1e-05	–	< 1e-05
G35C A48G C50A	< 1e-05	–	–	–	–
A39C U49A	< 1e-05	< 1e-05	–	–	< 1e-05
G38A A48U	< 1e-05	–	< 1e-05	–	< 1e-05
G37C G38C G40U U55A	< 1e-05	–	–	< 1e-05	–
G38U A42U U49A G60U	< 1e-05	–	–	–	< 1e-05
C34U U69A	0.000116 ± 2.4e-05	–	0.00034 ± 0.00012	–	–
G37A U56A	1.92e-05 ± 6.8e-06	4.84e-05 ± 1.8e-05	–	–	0.000962 ± 0.00011
G38U G40U	< 1e-05	–	–	–	< 1e-05
A39G C50G C58A	0.000142 ± 4.6e-05	–	–	–	–
G38A U46C A53C U54C C68A	< 1e-05	–	–	–	< 1e-05
A39G C68U	0.000529 ± 5e-05	0.000783 ± 0.00025	0.00223 ± 0.0005	0.00387 ± 0.0012	0.0156 ± 0.003
A36U C61A C67U	5.22e-05 ± 2.3e-05	–	–	–	–
G37U G60C	< 1e-05	< 1e-05	< 1e-05	–	–
G37U G41C C70U	< 1e-05	–	–	–	–
A39C G41A	< 1e-05	< 1e-05	< 1e-05	–	< 1e-05
G37C G41U U54G	< 1e-05	–	–	–	–
A36C U65A	< 1e-05	–	< 1e-05	< 1e-05	–
A36C U65C	< 1e-05	< 1e-05	–	< 1e-05	< 1e-05
G37A C50A G59A G66A	< 1e-05	–	–	–	–
G35A U45A C67U	< 1e-05	–	–	–	< 1e-05
A36C U49C U65A	< 1e-05	–	–	–	< 1e-05
G35C A48G A52C C70G	< 1e-05	–	–	–	–

Variant	self-cleavage kobs at 40 uM GlcN6P (glucosamine-6-phosphate [1]) [s⁻¹]	self-cleavage kobs at 160 uM GlcN6P (glucosamine-6-phosphate [2]) [s⁻¹]	self-cleavage kobs at 640 uM GlcN6P (glucosamine-6-phosphate [3]) [s⁻¹]	self-cleavage kobs at 2500 uM GlcN6P (glucosamine-6-phosphate [4]) [s⁻¹]	self-cleavage kobs at 10000 uM GlcN6P (glucosamine-6-phosphate [5]) [s⁻¹]
A39C A48U G59U	< 1e-05	–	–	–	< 1e-05
G35A C50A G51A	< 1e-05	–	< 1e-05	< 1e-05	–
G38U G51C	< 1e-05	–	< 1e-05	< 1e-05	–
G35A U45A C61A G62C	< 1e-05	–	–	–	–
G37U G40A G59U	< 1e-05	–	–	< 1e-05	< 1e-05
G38A G40A	< 1e-05	< 1e-05	< 1e-05	< 1e-05	< 1e-05
G38U A52U U57G A64G	< 1e-05	–	–	–	< 1e-05
G40A G41C C61G	< 1e-05	–	< 1e-05	< 1e-05	–
G37C U45G	< 1e-05	< 1e-05	< 1e-05	–	–
G40A U47G	8.03e-05 ± 1.9e-05	0.000122 ± 2.3e-05	0.000547 ± 0.00011	0.00069 ± 0.00018	0.00267 ± 0.0004
G35C U65C	< 1e-05	< 1e-05	< 1e-05	< 1e-05	< 1e-05
G38U G41C G43A	< 1e-05	–	–	–	–
A39C G62A	< 1e-05	–	< 1e-05	–	< 1e-05
G37U G40C A64U	< 1e-05	–	–	–	< 1e-05
G35C G66A	< 1e-05	–	–	< 1e-05	< 1e-05
G35C G66C	< 1e-05	< 1e-05	< 1e-05	< 1e-05	< 1e-05
A36G U45G G51U U54C U56A C68A	< 1e-05	–	–	–	–
G38C U65C	< 1e-05	< 1e-05	< 1e-05	–	< 1e-05
G38C U65G	< 1e-05	< 1e-05	< 1e-05	–	–
G37C A48U U57G	< 1e-05	–	< 1e-05	< 1e-05	–
G37C G41U G63C	< 1e-05	–	–	–	–
A36G C58U C70U	< 1e-05	< 1e-05	< 1e-05	–	–
G35C G60A	< 1e-05	–	< 1e-05	–	< 1e-05
G35C A42U	< 1e-05	< 1e-05	< 1e-05	< 1e-05	–

Variant	self-cleavage kobs at 40 uM GlcN6P (glucosamine-6-phosphate [1]) [s⁻¹]	self-cleavage kobs at 160 uM GlcN6P (glucosamine-6-phosphate [2]) [s⁻¹]	self-cleavage kobs at 640 uM GlcN6P (glucosamine-6-phosphate [3]) [s⁻¹]	self-cleavage kobs at 2500 uM GlcN6P (glucosamine-6-phosphate [4]) [s⁻¹]	self-cleavage kobs at 10000 uM GlcN6P (glucosamine-6-phosphate [5]) [s⁻¹]
G35A G41A	< 1e-05	< 1e-05	< 1e-05	< 1e-05	< 1e-05
G38C G44U C58U A64U	< 1e-05	–	–	–	< 1e-05
G35C A36G G37A A39G U65A	< 1e-05	–	–	–	< 1e-05
C34U U56A	< 1e-05	< 1e-05	< 1e-05	< 1e-05	–
A39C C50A	< 1e-05	< 1e-05	< 1e-05	–	< 1e-05
G38A G44C U47A	< 1e-05	–	–	–	< 1e-05
A39C U69G	< 1e-05	–	< 1e-05	–	< 1e-05
A36U U49G U65A	< 1e-05	–	–	–	–
G35U A52C	< 1e-05	–	–	–	< 1e-05
G35C C50U G51C	< 1e-05	< 1e-05	< 1e-05	< 1e-05	< 1e-05
G35A U56G	< 1e-05	–	< 1e-05	–	< 1e-05
A36C G41U G51A G60U	< 1e-05	–	< 1e-05	< 1e-05	–
A39U U56A	0.000199 ± 3.1e-05	0.000238 ± 8.2e-05	–	0.00215 ± 0.00066	0.00963 ± 0.00089
A36U U49C	< 1e-05	< 1e-05	< 1e-05	–	< 1e-05
A36G A64U U65G	< 1e-05	–	< 1e-05	< 1e-05	< 1e-05
G37C G38A	< 1e-05	< 1e-05	–	–	< 1e-05
G35U G51A U54G	< 1e-05	–	–	–	< 1e-05
G38C C58U	< 1e-05	–	< 1e-05	< 1e-05	< 1e-05
G35A A48U C71U	< 1e-05	–	–	–	–
G38A C58U U69C	< 1e-05	–	–	–	< 1e-05
A39C U65G C70G	< 1e-05	< 1e-05	< 1e-05	–	< 1e-05

Reference: the supplement of paper PMC7125110
